Results published in the RNAGym collection of RNA variant scans (doi:10.1021/acssynbio.7b00057).

B1: Pistol ribozyme (parent)
chain: GGGUCGUUGUUCCAUAAUCGCGUGGAUAUGGCACGCAAGUUUCUACCGGGCACCGUAAAUGUCCGACUGGAGCCGUUCGGGCGGCUAUAAACAGACCUCAGGCCCGAAGCGUGGCGGCACCUGCCGCCGGUGGUAAAAAAGAUCGGAAGAGCACACGUCU

Variants of: B1
Test: aptazyme ON/OFF ratio, guanine; higher = stronger switching; co-transcriptional cleavage with and without guanine

Variant	aptazyme ON/OFF ratio
GGGUCGCCCUCACAUAAUCGCGUGGAUAUGGCACGCAAGUUUCUACCGGGCACCGUAAAUGUCCGACUGGAGCCGUUCGGGCGGCUAUAAACAGACCUCAGGCCCGAAGCGUGGCGGCACCUGCCGCCGGUGGUAAAAAAGAUCGGAAGAGCACACGUCU [U7C U8C G9C U11C C12A]	1.22
GGGUCGCCCUCUCAUAAUCGCGUGGAUAUGGCACGCAAGUUUCUACCGGGCACCGUAAAUGUCCGACUGGAGCCGUUCGGGCGGCUAUAAACAGACCUCAGGCCCGAAGCGUGGCGGCACCUGCCGCCGGUGGUAAAAAAGAUCGGAAGAGCACACGUCU [U7C U8C G9C U11C C12U]	1.32
GGGUCGCCCUCGCAUAAUCGCGUGGAUAUGGCACGCAAGUUUCUACCGGGCACCGUAAAUGUCCGACUGGAGCCGUUCGGGCGGCUAUAAACAGACCUCAGGCCCGAAGCGUGGCGGCACCUGCCGCCGGUGGUAAAAAAGAUCGGAAGAGCACACGUCU [U7C U8C G9C U11C C12G]	1.24
GGGUCGCCCUCAGAUAAUCGCGUGGAUAUGGCACGCAAGUUUCUACCGGGCACCGUAAAUGUCCGACUGGAGCCGUUCGGGCGGCUAUAAACAGACCUCAGGCCCGAAGCGUGGCGGCACCUGCCGCCGGUGGUAAAAAAGAUCGGAAGAGCACACGUCU [U7C U8C G9C U11C C12A C13G]	1.04
GGGUCGCCCUCAAAUAAUCGCGUGGAUAUGGCACGCAAGUUUCUACCGGGCACCGUAAAUGUCCGACUGGAGCCGUUCGGGCGGCUAUAAACAGACCUCAGGCCCGAAGCGUGGCGGCACCUGCCGCCGGUGGUAAAAAAGAUCGGAAGAGCACACGUCU [U7C U8C G9C U11C C12A C13A]	1.16
GGGUCGCCCUCAUAUAAUCGCGUGGAUAUGGCACGCAAGUUUCUACCGGGCACCGUAAAUGUCCGACUGGAGCCGUUCGGGCGGCUAUAAACAGACCUCAGGCCCGAAGCGUGGCGGCACCUGCCGCCGGUGGUAAAAAAGAUCGGAAGAGCACACGUCU [U7C U8C G9C U11C C12A C13U]	1.18
GGGUCGCCCGGUCAUAAUCGCGUGGAUAUGGCACGCAAGUUUCUACCGGGCACCGUAAAUGUCCGACUGGAGCCGUUCGGGCGGCUAUAAACAGACCUCAGGCCCGAAGCGUGGCGGCACCUGCCGCCGGUGGUAAAAAAGAUCGGAAGAGCACACGUCU [U7C U8C G9C U10G U11G C12U]	1.11
GGGUCGCCCUAGUAUAAUCGCGUGGAUAUGGCACGCAAGUUUCUACCGGGCACCGUAAAUGUCCGACUGGAGCCGUUCGGGCGGCUAUAAACAGACCUCAGGCCCGAAGCGUGGCGGCACCUGCCGCCGGUGGUAAAAAAGAUCGGAAGAGCACACGUCU [U7C U8C G9C U11A C12G C13U]	1.03
GGGUCGCCCUAGGAUAAUCGCGUGGAUAUGGCACGCAAGUUUCUACCGGGCACCGUAAAUGUCCGACUGGAGCCGUUCGGGCGGCUAUAAACAGACCUCAGGCCCGAAGCGUGGCGGCACCUGCCGCCGGUGGUAAAAAAGAUCGGAAGAGCACACGUCU [U7C U8C G9C U11A C12G C13G]	1.07
GGGUCGCCCUAGAAUAAUCGCGUGGAUAUGGCACGCAAGUUUCUACCGGGCACCGUAAAUGUCCGACUGGAGCCGUUCGGGCGGCUAUAAACAGACCUCAGGCCCGAAGCGUGGCGGCACCUGCCGCCGGUGGUAAAAAAGAUCGGAAGAGCACACGUCU [U7C U8C G9C U11A C12G C13A]	1.07
GGGUCGCCCUAACAUAAUCGCGUGGAUAUGGCACGCAAGUUUCUACCGGGCACCGUAAAUGUCCGACUGGAGCCGUUCGGGCGGCUAUAAACAGACCUCAGGCCCGAAGCGUGGCGGCACCUGCCGCCGGUGGUAAAAAAGAUCGGAAGAGCACACGUCU [U7C U8C G9C U11A C12A]	1.23
GGGUCGCCCUAUCAUAAUCGCGUGGAUAUGGCACGCAAGUUUCUACCGGGCACCGUAAAUGUCCGACUGGAGCCGUUCGGGCGGCUAUAAACAGACCUCAGGCCCGAAGCGUGGCGGCACCUGCCGCCGGUGGUAAAAAAGAUCGGAAGAGCACACGUCU [U7C U8C G9C U11A C12U]	1.14
GGGUCGCCCUAGCAUAAUCGCGUGGAUAUGGCACGCAAGUUUCUACCGGGCACCGUAAAUGUCCGACUGGAGCCGUUCGGGCGGCUAUAAACAGACCUCAGGCCCGAAGCGUGGCGGCACCUGCCGCCGGUGGUAAAAAAGAUCGGAAGAGCACACGUCU [U7C U8C G9C U11A C12G]	1.14
GGGUCGCCCUAUAAUAAUCGCGUGGAUAUGGCACGCAAGUUUCUACCGGGCACCGUAAAUGUCCGACUGGAGCCGUUCGGGCGGCUAUAAACAGACCUCAGGCCCGAAGCGUGGCGGCACCUGCCGCCGGUGGUAAAAAAGAUCGGAAGAGCACACGUCU [U7C U8C G9C U11A C12U C13A]	1.06
GGGUCGCCCUAUGAUAAUCGCGUGGAUAUGGCACGCAAGUUUCUACCGGGCACCGUAAAUGUCCGACUGGAGCCGUUCGGGCGGCUAUAAACAGACCUCAGGCCCGAAGCGUGGCGGCACCUGCCGCCGGUGGUAAAAAAGAUCGGAAGAGCACACGUCU [U7C U8C G9C U11A C12U C13G]	1.16
GGGUCGCCCUAUUAUAAUCGCGUGGAUAUGGCACGCAAGUUUCUACCGGGCACCGUAAAUGUCCGACUGGAGCCGUUCGGGCGGCUAUAAACAGACCUCAGGCCCGAAGCGUGGCGGCACCUGCCGCCGGUGGUAAAAAAGAUCGGAAGAGCACACGUCU [U7C U8C G9C U11A C12U C13U]	1.11
GGGUCGCCCUAAAAUAAUCGCGUGGAUAUGGCACGCAAGUUUCUACCGGGCACCGUAAAUGUCCGACUGGAGCCGUUCGGGCGGCUAUAAACAGACCUCAGGCCCGAAGCGUGGCGGCACCUGCCGCCGGUGGUAAAAAAGAUCGGAAGAGCACACGUCU [U7C U8C G9C U11A C12A C13A]	1.1
GGGUCGCCCUAAUAUAAUCGCGUGGAUAUGGCACGCAAGUUUCUACCGGGCACCGUAAAUGUCCGACUGGAGCCGUUCGGGCGGCUAUAAACAGACCUCAGGCCCGAAGCGUGGCGGCACCUGCCGCCGGUGGUAAAAAAGAUCGGAAGAGCACACGUCU [U7C U8C G9C U11A C12A C13U]	1.13
